Data: PMC7367873, “Dissecting the sequence determinants for dephosphorylation by the catalytic subunits of phosphatases PP1 and PP2A” (Nature Communications, 2020)

B1: FAM122B (protein, UniProt Q7Z309 2-247, looked up)
PABIR family member 2: AQEKMELDLEPDTSYGGTLRRSSSAPLIHGLSDLSQVFQPYTLRTRRNSTTIMSRHSLEEGLDMVNRETAHEREMQTAMQISQSWDESLSLSDSDFDKPEKLYSPKRIDFTPVSPAPSPTRGFGKMFVSSSGLPPSPVPSPRRFSRRSQSPVKCIRPSVLGPLKRKGEMETESQPKRLFQGTTNMLSPDAAQLSDLSSCSDILDGSSSSSGLSSDPLAKGSATAESPVACSNSCSSFILMDDLSPK
B2: NEDD4L (protein, UniProt Q96PU5 2-975, looked up)
E3 ubiquitin-protein ligase …: ATGLGEPVYGLSEDEGESRILRVKVVSGIDLAKKDIFGASDPYVKLSLYVADENRELALVQTKTIKKTLNPKWNEEFYFRVNPSNHRLLFEVFDENRLTRDDFLGQVDVPLSHLPTEDPTMERPYTFKDFLLRPRSHKSRVKGFLRLKMAYMPKNGGQDEENSDQRDDMEHGWEVVDSNDSASQHQEELPPPPLPPGWEEKVDNLGRTYYVNHNNRTTQWHRPSLMDVSSESDNNIRQINQEAAHRRFRSRRHISEDLEPEPSEGGDVPEPWETISEEVNIAGDSLGLALPPPPASPGSRTSPQELSEELSRRLQITPDSNGEQFSSLIQREPSSRLRSCSVTDAVAEQGHLPPPSAPAGRARSSTVTGGEEPTPSVAYVHTTPGLPSGWEERKDAKGRTYYVNHNNRTTTWTRPIMQLAEDGASGSATNSNNHLIEPQIRRPRSLSSPTVTLSAPLEGAKDSPVRRAVKDTLSNPQSPQPSPYNSPKPQHKVTQSFLPPGWEMRIAPNGRPFFIDHNTKTTTWEDPRLKFPVHMRSKTSLNPNDLGPLPPGWEERIHLDGRTFYIDHNSKITQWEDPRLQNPAITGPAVPYSREFKQKYDYFRKKLKKPADIPNRFEMKLHRNNIFEESYRRIMSVKRPDVLKARLWIEFESEKGLDYGGVAREWFFLLSKEMFNPYYGLFEYSATDNYTLQINPNSGLCNEDHLSYFTFIGRVAGLAVFHGKLLDGFFIRPFYKMMLGKQITLNDMESVDSEYYNSLKWILENDPTELDLMFCIDEENFGQTYQVDLKPNGSEIMVTNENKREYIDLVIQWRFVNRVQKQMNAFLEGFTELLPIDLIKIFDENELELLMCGLGDVDVNDWRQHSIYKNGYCPNHPVIQWFWKAVLLMDAEKRIRLLQFVTGTSRVPMNGFAELYGSNGPQLFTIEQWGSPEKLPRAHTCFNRLDLPPYETFEDLREKLLMAVENAQGFEGVD
B3: SRSF7 (protein, UniProt Q16629 1-238, looked up)
Serine/arginine-rich splicing …: MSRYGRYGGETKVYVGNLGTGAGKGELERAFSYYGPLRTVWIARNPPGFAFVEFEDPRDAEDAVRGLDGKVICGSRVRVELSTGMPRRSRFDRPPARRPFDPNDRCYECGEKGHYAYDCHRYSRRRRSRSRSRSHSRSRGRRYSRSRSRSRGRRSRSASPRRSRSISLRRSRSASLRRSRSGSIKGSRYFQSPSRSRSRSRSISRPRSSRSKSRSPSPKRSRSPSGSPRRSASPERMD
B4: PFKFB2 (protein, UniProt O60825 2-505, looked up)
6-phosphofructo-2-kinase/fruct …: SGASSSEQNNNSYETKTPNLRMSEKKCSWASYMTNSPTLIVMIGLPARGKTYVSKKLTRYLNWIGVPTKVFNLGVYRREAVKSYKSYDFFRHDNEEAMKIRKQCALVALEDVKAYLTEENGQIAVFDATNTTRERRDMILNFAEQNSFKVFFVESVCDDPDVIAANILEVKVSSPDYPERNRENVMEDFLKRIECYKVTYRPLDPDNYDKDLSFIKVINVGQRFLVNRVQDYIQSKIVYYLMNIHVQPRTIYLCRHGESEFNLLGKIGGDSGLSVRGKQFAQALRKFLEEQEITDLKVWTSQLKRTIQTAESLGVPYEQWKILNEIDAGVCEEMTYAEIEKRYPEEFALRDQEKYLYRYPGGESYQDLVQRLEPVIMELERQGNVLVISHQAVMRCLLAYFLDKGADELPYLRCPLHTIFKLTPVAYGCKVETIKLNVEAVNTHRDKPTNNFPKNQTPVRMRRNSFTPLSSSNTIRRPRNYSVGSRPLKPLSPLRAQDMQEGAD
B5: SRPK1 (protein, UniProt Q96SB4 1-655, looked up)
SRSF protein kinase 1: MERKVLALQARKKRTKAKKDKAQRKSETQHRGSAPHSESDLPEQEEEILGSDDDEQEDPNDYCKGGYHLVKIGDLFNGRYHVIRKLGWGHFSTVWLSWDIQGKKFVAMKVVKSAEHYTETALDEIRLLKSVRNSDPNDPNREMVVQLLDDFKISGVNGTHICMVFEVLGHHLLKWIIKSNYQGLPLPCVKKIIQQVLQGLDYLHTKCRIIHTDIKPENILLSVNEQYIRRLAAEATEWQRSGAPPPSGSAVSTAPQPKPADKMSKNKKKKLKKKQKRQAELLEKRMQEIEEMEKESGPGQKRPNKQEESESPVERPLKENPPNKMTQEKLEESSTIGQDQTLMERDTEGGAAEINCNGVIEVINYTQNSNNETLRHKEDLHNANDCDVQNLNQESSFLSSQNGDSSTSQETDSCTPITSEVSDTMVCQSSSTVGQSFSEQHISQLQESIRAEIPCEDEQEQEHNGPLDNKGKSTAGNFLVNPLEPKNAEKLKVKIADLGNACWVHKHFTEDIQTRQYRSLEVLIGSGYNTPADIWSTACMAFELATGDYLFEPHSGEEYTRDEDHIALIIELLGKVPRKLIVAGKYSKEFFTKKGDLKHITKLKPWGLFEVLVEKYEWSQEEAAGFTDFLLPMLELIPEKRATAAECLRHPWLNS
B6: PI4KB (protein, UniProt Q9UBF8 2-816, looked up)
Phosphatidylinositol 4-kinase …: GDTVVEPAPLKPTSEPTSGPPGNNGGSLLSVITEGVGELSVIDPEVAQKACQEVLEKVKLLHGGVAVSSRGTPLELVNGDGVDSEIRCLDDPPAQIREEEDEMGAAVASGTAKGARRRRQNNSAKQSWLLRLFESKLFDISMAISYLYNSKEPGVQAYIGNRLFCFRNEDVDFYLPQLLNMYIHMDEDVGDAIKPYIVHRCRQSINFSLQCALLLGAYSSDMHISTQRHSRGTKLRKLILSDELKPAHRKRELPSLSPAPDTGLSPSKRTHQRSKSDATASISLSSNLKRTASNPKVENEDEELSSSTESIDNSFSSPVRLAPEREFIKSLMAIGKRLATLPTKEQKTQRLISELSLLNHKLPARVWLPTAGFDHHVVRVPHTQAVVLNSKDKAPYLIYVEVLECENFDTTSVPARIPENRIRSTRSVENLPECGITHEQRAGSFSTVPNYDNDDEAWSVDDIGELQVELPEVHTNSCDNISQFSVDSITSQESKEPVFIAAGDIRRRLSEQLAHTPTAFKRDPEDPSAVALKEPWQEKVRRIREGSPYGHLPNWRLLSVIVKCGDDLRQELLAFQVLKQLQSIWEQERVPLWIKPYKILVISADSGMIEPVVNAVSIHQVKKQSQLSLLDYFLQEHGSYTTEAFLSAQRNFVQSCAGYCLVCYLLQVKDRHNGNILLDAEGHIIHIDFGFILSSSPRNLGFETSAFKLTTEFVDVMGGLDGDMFNYYKMLMLQGLIAARKHMDKVVQIVEIMQQGSQLPCFHGSSTIRNLKERFHMSMTEEQLQLLVEQMVDGSMRSITTKLYDGFQYLTNGIM
B7: PPFIBP1 (protein, UniProt Q86W92 1-1011, looked up)
Liprin-beta-1: MMSDASDMLAAALEQMDGIIAGSKALEYSNGIFDCQSPTSPFMGSLRALHLVEDLRGLLEMMETDEKEGLRCQIPDSTAETLVEWLQSQMTNGHLPGNGDVYQERLARLENDKESLVLQVSVLTDQVEAQGEKIRDLEFCLEEHREKVNATEEMLQQELLSRTSLETQKLDLMAEISNLKLKLTAVEKDRLDYEDKFRDTEGLIQEINDLRLKVSEMDSERLQYEKKLKSTKSLMAKLSSMKIKVGQMQYEKQRMEQKWESLKDELASLKEQLEEKESEVKRLQEKLVCKMKGEGVEIVDRDIEVQKMKKAVESLMAANEEKDRKIEDLRQCLNRYKKMQDTVVLAQGKDGEYEELLNSSSISSLLDAQGFSDLEKSPSPTPVMGSPSCDPFNTSVPEEFHTTILQVSIPSLLPATVSMETSEKSKLTPKPETSFEENDGNIILGATVDTQLCDKLLTSSLQKSSSLGNLKKETSDGEKETIQKTSEDRAPAESRPFGTLPPRPPGQDTSMDDNPFGTRKVRSSFGRGFFKIKSNKRTASAPNLAETEKETAEHLDLAGASSRPKDSQRNSPFQIPPPSPDSKKKSRGIMKLFGKLRRSQSTTFNPDDMSEPEFKRGGTRATAGPRLGWSRDLGQSNSDLDMPFAKWTKEQVCNWLMEQGLGSYLNSGKHWIASGQTLLQASQQDLEKELGIKHSLHRKKLQLALQALGSEEETNHGKLDFNWVTRWLDDIGLPQYKTQFDEGRVDGRMLHYMTVDDLLSLKVVSVLHHLSIKRAIQVLRINNFEPNCLRRRPSDENTIAPSEVQKWTNHRVMEWLRSVDLAEYAPNLRGSGVHGGLMVLEPRFNVETMAQLLNIPPNKTLLRRHLATHFNLLIGAEAQHQKRDAMELPDYVLLTATAKVKPKKLAFSNFGNLRKKKQEDGEEYVCPMELGQASGSASKKGFKPGLDMRLYEEDDLDRLEQMEDSEGTVRQIGAFSEGINNLTHMLKEDDMFKDFAARSPSASITDEDSNV

Tests used:
[1] = tested on: GFP-14-3-3β and its binding proteins; assay: GFP-14-3-3β co-IP with LC-MS/MS label-free quantification, untreated versus PP1c-treated; parameters: species or system human; conditions: pairwise comparison PP1 vs untreated, 3 replicates each
GFP-14-3-3β = GFP-14-3-3β co-IP with LC-MS/MS, untreated GFP-14-3-3β versus GFP control (14-3-3 interactome); type: binding, human; conditions: 3 replicates each
[2] = student's t-test, LC-MS/MS label-free quantification
[3] = pairwise comparison untreated GFP-14-3-3β vs GFP, student's t-test, LC-MS/MS label-free quantification

Molecule | Difference (log2), PP1 vs untreated [1, 2] | Difference (log2), untreated vs GFP (GFP-14-3-3β; [3]) | Difference (log2), PP1 vs untreated ([1]; log2 difference, label-free quantification) | Difference (log2), untreated vs GFP (GFP-14-3-3β; log2 difference, pairwise comparison untreated vs GFP, label-free quantification)
B1 | -5.572 log2 | 4.879 log2 | – | –
B2 | -5.048 log2 | 4.407 log2 | – | –
B3 | -6.84 log2 | 7.205 log2 | – | –
B4 | -5.844 log2 | 3.999 log2 | – | –
B5 | – | – | 1.464 | 0.8168
B6 | -5.63 log2 | 4.864 log2 | – | –
B7 | -5.566 log2 | 6.964 log2 | – | –
